Article PMC7241686

Biological target: HA trimer from A/New Caledonia/20/1999 (H1N1), soluble trimerized HA ectodomain (Influenza A virus A/New Caledonia/20/1999 (H1N1))
Test: SEC

Q: Which stoichiometry N does the source give for “HA trimer from A/New Caledonia/20/1999 (H1N1), soluble trimerized HA ectodomain (domain or fragment)” here?
A: Its stoichiometry N is 3.
